The values below come from patent US20080113421A1, “Stabilizing proteins against denaturation and inactivation by charged detergents using chemical modifications, including modifications that increase net charge” (President and Fellows of Harvard College, priority 2006, published 2008).

What all share (type): physicochemical
Series [1] in a line: Dynamic light scattering, hydrodynamic radius. How it is done:
Dynamic light scattering (DLS) measurements were performed on a DynaPro light scattering device (Wyatt Technology Corp.), at protein concentrations of […].
Dynamic light scattering was also used to measure the sizes of the folded and unfolded protein and of the presumably aggregated sample. The hydrodynamic radius of the native BCA (2.7±0.7 nm), and of BCA, refolded in 0.1 mM SDS (2.6±0.6 nm), were measured. BCA was denatured in 10 mM SDS, and diluted to 1.8 mM SDS, a concentration at which no refoldings were observed immediately before the measurement. […] The small increase in the hydrodynamic radius of the incubated sample is indicative of the formation of low-order aggregates (e.g., dimers or trimers), but the resolution of DLS measurements was not sufficient to observe each species individually.

Series [2] can be described thus: Unfolding (denaturation) of protein in SDS in Tris-Gly buffer, monitored by DNSA fluorescence. The method, then: Monitoring unfolding of BCA and BCA-Ac18 was performed as follows. The proteins (200 nM) were incubated in different concentrations of SDS in Tris-Gly buffer. A 100 microliter aliquot of protein-SDS solution was mixed with 100 microliters of DNSA solution (30 micromolar) with the same concentration of SDS, and measured the intensity of fluorescence (Perkin-Elmer LS50B spectrometer, λex=280 nm, λem=460 nm) as a function of time. The denaturation of BCA was continuously monitored in concentrations of SDS above 4 mM. The rate constants were determined for denaturation by fitting the intensity vs. time data to FU=FUmaxe^−kt+FUmin. Unfolding experiments at 37° C. were performed similarly, with samples stored in a dry bath incubator (Fisher Scientific).
The kinetics of unfolding were determined as follows. The rates of denaturation of BCA and BCA-Ac18 were measured by incubating the protein (200 nM) in solutions of different concentrations of SDS. Immediately prior to the measurement, an aliquot of solution containing protein and SDS was mixed with a solution containing DNSA and the same concentration of SDS; this protocol minimized the possibility that DNSA might stabilize the native conformation of the protein, and influence the rate of its denaturation. When BCA was denatured in concentrations of SDS of 4 mM and higher, DNSA was added to the original, denaturing solution because the rate of denaturation was too fast to follow with manual mixing of aliquots of protein and DNSA. It was observed that DNSA, when present with the protein in the denaturing solution, reduced the rates of denaturation by factors of about 2-10.
FIG. 1 plots the fluorescence of DNSA, normalized to the signal at t=0, as a function of time of incubation of samples of BCA and BCA-Ac18 in various concentrations of SDS. The decrease in the intensity of fluorescence of DNSA, and thus in the amount of folded protein, followed first-order kinetics. Denaturation of proteins with surfactants probably proceeds through intermediates, but when using a marker that is specific to the folded active site of carbonic anhydrase, transitions beyond the initial unfolding of the three-dimensional structure of the protein were not detected.
The tables list the half-lives (t1/2) for denaturation of BCA and BCA-Ac18 at several concentrations of SDS. The denaturation of BCA at 4 mM occurred very rapidly, and data are not shown to avoid overlap with data at 3.5 mM. The error bars represent the difference between the average and the largest and smallest values measured from at least three replicate measurements.

Series [3] in a line: Screening of additives in denaturation/renaturation with SDS. How it is done: Additives in de-/renaturation included the following. The effects of the following additives on denaturation and renaturation of BCA and BCA-Ac18 were screened: poly(ethelyneglycol) (PEG, MW=2000), 0.1 mM, 1 mM; poly(vinylpyrrolidone), MW=10 000, 1%, 10% w/v; 3-(3-cholamidopropyl)dimethylammoniopropane sulfonate (CHAPS), 1 mM; octanol, 1 mM; tetrabutylammonium thiocyanate, 100 mM; sodium thiocyanate, 100 mM, 1 M; sodium sulfate, 10 mM; betaine, 1 M; dimethyl sulfoxide (DMSO), 1%, 10% v/v; N-methylpyrrolidone, 1%, 10% v/v. The screening was performed in a 96-well plate format, using a SpectraMax Gemini XS spectrometer (Molecular Devices), with a protein concentration of 100 nM, a DNSA concentration of 10 micromolar (present in the denaturation/renaturation buffers), and variable concentrations of SDS.
In some experiments, various additives were used to prevent aggregation of BCA and BCA-Ac18. These additives were commonly used to prevent aggregation of carbonic anhydrases and other proteins. The additives included polymers (PEG), other surfactants (CHAPS), “salting-in” Hofmeister salts (tetrabutylammonium thiocyanate and sodium thiocyanate), osmolytes (betaine), and organic solvents (dimethyl sulfoxide and N-methylpyrrolidone). […] For example, in 10% DMSO, it was observed that refolding of BCA up to 1.2 mM SDS (vs. 0.7 mM SDS without a cosolvent), but unfolding up to 2.5 mM SDS was not observed.

Consider bovine carbonic anhydrase II [BCA], for which the hydrodynamic radius in series [1] (denatured in 10 mM SDS, diluted to 1.8 mM SDS immediately before measurement) turned out to be 2.9±0.6 nm; in series [1] (denatured, incubated in 1.8 mM SDS for one week) it was 3.6±0.9 nm; in series [1] (native protein) it was 2.7±0.7 nm; in series [1] (refolded in 0.1 mM SDS), 2.6±0.6 nm. In addition, the t1/2 for denaturation in series [2] (4 mM SDS, Tris-Gly buffer, with DNSA present during denaturation) is listed as 15 s; in series [2] (10 mM SDS, Tris-Gly buffer), under 5 s. The “denaturation in low concentrations of SDS” value in series [2] (SDS below 2 mM, long (~1 month) periods of time) is “no denaturation”. Also, the “concentration of SDS at which the protein denatures” value in series [2] (Tris-Gly buffer, CMC 4.3 mM) is at least 2500 µM. In addition, the “highest SDS concentration at which refolding was observed” value is on record as “up to 1.8 mM” in series [3] (1 mM CHAPS), “up to 1.2 mM” in series [3] (10% DMSO) and at most 0.7 mM in series [3] (without a cosolvent). In addition, the “SDS concentration needed for unfolding” value in series [3] (1 mM CHAPS, unfolding did not occur below this concentration) was at least 2.5 mM; in series [3] (10% DMSO, unfolding up to this concentration not observed) it was over 2.5 mM.
